Assay in all cases: ITC
Background: Isothermal titration calorimetry measures the heat released or taken up as one component is titrated into another.

Data set [1] addresses Jun bZIP R263A;Fos bZIP K148A (human;human, UniProt P05412;P01100 252-315;137-200, R263A|K148A).
Data set [2] addresses Jun bZIP K258A;Fos bZIP R158A (human;human, UniProt P05412;P01100 252-315;137-200, K258A|R158A).
Data set [3] has as its target Jun bZIP K258A;Fos bZIP R144A (human;human, UniProt P05412;P01100 252-315;137-200, K258A|R144A).
Data set [4] concerns the target Jun bZIP R261A;Fos bZIP R144A (human;human, UniProt P05412;P01100 252-315;137-200, R261A|R144A).
The target of data set [5] is Jun bZIP R270A;Fos bZIP R155A (human;human, UniProt P05412;P01100 252-315;137-200, R270A|R155A).
Jun bZIP R270A;Fos bZIP R155A, sequence (P05412 252-315 R270A, chain 1 of 2): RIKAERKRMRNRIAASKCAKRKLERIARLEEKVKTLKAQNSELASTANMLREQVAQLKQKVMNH
Jun bZIP R270A;Fos bZIP R155A, sequence (P01100 137-200 R155A, chain 2 of 2): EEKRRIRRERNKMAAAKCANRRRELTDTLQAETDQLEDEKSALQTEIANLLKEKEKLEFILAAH
The target in data set [6] is Jun bZIP K258A;Fos bZIP K153A (human;human, UniProt P05412;P01100 252-315;137-200, K258A|K153A).
Jun bZIP K258A;Fos bZIP K153A, sequence (P05412 252-315 K258A, chain 1 of 2): as the sequence (P05412 252-315 R270A, chain 1 of 2) above, with K7A, A19R counted along it
Jun bZIP K258A;Fos bZIP K153A, sequence (P01100 137-200 K153A, chain 2 of 2): as the sequence (P01100 137-200 R155A, chain 2 of 2) above, with K17A, A19R counted along it
For data set [7], the target named is Jun-Jun bZIP R272A (human, UniProt P05412 252-315, R272A).
Jun-Jun bZIP R272A, sequence (P05412 252-315 R272A): as the sequence (P05412 252-315 R270A, chain 1 of 2) above, with A19R, R21A counted along it
Data set [8] addresses Jun bZIP R261A;Fos bZIP K153A (human;human, UniProt P05412;P01100 252-315;137-200, R261A|K153A).
Data set [9] addresses Jun bZIP K258A;Fos bZIP K148A (human;human, UniProt P05412;P01100 252-315;137-200, K258A|K148A).
In data set [10] the target is Jun bZIP R270A;Fos bZIP K153A (human;human, UniProt P05412;P01100 252-315;137-200, R270A|K153A).
Jun bZIP R270A;Fos bZIP K153A, sequence (P05412 252-315 R270A, chain 1 of 2): as the sequence (P05412 252-315 R270A, chain 1 of 2) above
Jun bZIP R270A;Fos bZIP K153A, sequence (P01100 137-200 K153A, chain 2 of 2): as the sequence (P01100 137-200 R155A, chain 2 of 2) above, with K17A, A19R counted along it
For data set [11], the target named is Jun bZIP R272A;Fos bZIP R146A (human;human, UniProt P05412;P01100 252-315;137-200, R272A|R146A).
Jun bZIP R272A;Fos bZIP R146A, sequence (P05412 252-315 R272A, chain 1 of 2): as the sequence (P05412 252-315 R270A, chain 1 of 2) above, with A19R, R21A counted along it
Jun bZIP R272A;Fos bZIP R146A, sequence (P01100 137-200 R146A, chain 2 of 2): as the sequence (P01100 137-200 R155A, chain 2 of 2) above, with R10A, A19R counted along it
The target in data set [12] is Jun bZIP R261A;Fos bZIP R155A (human;human, UniProt P05412;P01100 252-315;137-200, R261A|R155A).
Jun bZIP R261A;Fos bZIP R155A, sequence (P05412 252-315 R261A, chain 1 of 2): as the sequence (P05412 252-315 R270A, chain 1 of 2) above, with R10A, A19R counted along it
Jun bZIP R261A;Fos bZIP R155A, sequence (P01100 137-200 R155A, chain 2 of 2): as the sequence (P01100 137-200 R155A, chain 2 of 2) above
The target of data set [13] is Jun bZIP R259A;Fos bZIP R155A (human;human, UniProt P05412;P01100 252-315;137-200, R259A|R155A).
Jun bZIP R259A;Fos bZIP R155A, sequence (P05412 252-315 R259A, chain 1 of 2): as the sequence (P05412 252-315 R270A, chain 1 of 2) above, with R8A, A19R counted along it
Jun bZIP R259A;Fos bZIP R155A, sequence (P01100 137-200 R155A, chain 2 of 2): as the sequence (P01100 137-200 R155A, chain 2 of 2) above
Data set [14] addresses Jun bZIP R272A;Fos bZIP R143A (human;human, UniProt P05412;P01100 252-315;137-200, R272A|R143A).
In data set [15] the target is Jun bZIP R272A;Fos bZIP R155A (human;human, UniProt P05412;P01100 252-315;137-200, R272A|R155A).
Jun bZIP R272A;Fos bZIP R155A, sequence (P05412 252-315 R272A, chain 1 of 2): as the sequence (P05412 252-315 R270A, chain 1 of 2) above, with A19R, R21A counted along it
Jun bZIP R272A;Fos bZIP R155A, sequence (P01100 137-200 R155A, chain 2 of 2): as the sequence (P01100 137-200 R155A, chain 2 of 2) above
The target in data set [16] is Jun bZIP K273A;Fos bZIP R144A (human;human, UniProt P05412;P01100 252-315;137-200, K273A|R144A).
Jun bZIP K273A;Fos bZIP R144A, sequence (P05412 252-315 K273A, chain 1 of 2): as the sequence (P05412 252-315 R270A, chain 1 of 2) above, with A19R, K22A counted along it
Jun bZIP K273A;Fos bZIP R144A, sequence (P01100 137-200 R144A, chain 2 of 2): as the sequence (P01100 137-200 R155A, chain 2 of 2) above, with R8A, A19R counted along it

The record followed here is publication PMC3154423.

Jun bZIP R261A;Fos bZIP R144A, sequence (P05412 252-315 R261A, chain 1 of 2): as the sequence (P05412 252-315 R270A, chain 1 of 2) above, with R10A, A19R counted along it
Jun bZIP R261A;Fos bZIP R144A, sequence (P01100 137-200 R144A, chain 2 of 2): as the sequence (P01100 137-200 R155A, chain 2 of 2) above, with R8A, A19R counted along it
Jun bZIP R261A;Fos bZIP K153A, sequence (P05412 252-315 R261A, chain 1 of 2): as the sequence (P05412 252-315 R270A, chain 1 of 2) above, with R10A, A19R counted along it
Jun bZIP R261A;Fos bZIP K153A, sequence (P01100 137-200 K153A, chain 2 of 2): as the sequence (P01100 137-200 R155A, chain 2 of 2) above, with K17A, A19R counted along it
Jun bZIP K258A;Fos bZIP R144A, sequence (P05412 252-315 K258A, chain 1 of 2): as the sequence (P05412 252-315 R270A, chain 1 of 2) above, with K7A, A19R counted along it
Jun bZIP K258A;Fos bZIP R144A, sequence (P01100 137-200 R144A, chain 2 of 2): as the sequence (P01100 137-200 R155A, chain 2 of 2) above, with R8A, A19R counted along it
Jun bZIP K258A;Fos bZIP K148A, sequence (P05412 252-315 K258A, chain 1 of 2): as the sequence (P05412 252-315 R270A, chain 1 of 2) above, with K7A, A19R counted along it
Jun bZIP K258A;Fos bZIP K148A, sequence (P01100 137-200 K148A, chain 2 of 2): as the sequence (P01100 137-200 R155A, chain 2 of 2) above, with K12A, A19R counted along it
Jun bZIP K258A;Fos bZIP R158A, sequence (P05412 252-315 K258A, chain 1 of 2): as the sequence (P05412 252-315 R270A, chain 1 of 2) above, with K7A, A19R counted along it
Jun bZIP K258A;Fos bZIP R158A, sequence (P01100 137-200 R158A, chain 2 of 2): as the sequence (P01100 137-200 R155A, chain 2 of 2) above, with A19R, R22A counted along it
Jun bZIP R272A;Fos bZIP R143A, sequence (P05412 252-315 R272A, chain 1 of 2): as the sequence (P05412 252-315 R270A, chain 1 of 2) above, with A19R, R21A counted along it
Jun bZIP R272A;Fos bZIP R143A, sequence (P01100 137-200 R143A, chain 2 of 2): as the sequence (P01100 137-200 R155A, chain 2 of 2) above, with R7A, A19R counted along it
Jun bZIP R263A;Fos bZIP K148A, sequence (P05412 252-315 R263A, chain 1 of 2): as the sequence (P05412 252-315 R270A, chain 1 of 2) above, with R12A, A19R counted along it
Jun bZIP R263A;Fos bZIP K148A, sequence (P01100 137-200 K148A, chain 2 of 2): as the sequence (P01100 137-200 R155A, chain 2 of 2) above, with K12A, A19R counted along it

B1: TRE duplex 15-mer (dsDNA)
DNA 1: CGCGTGACTCACCCC
DNA 2: GGGGTGAGTCACGCG
As a reminder, the Kd is the constant that tells how readily two partners part at equilibrium. In the case of B1, the Kd was found to be 1130 ± 10 nM in [1]; 960 ± 60 nM in [2]; 2780 ± 50 nM in data set [3]; 1840 ± 80 nM in data set [4]; 28900 ± 470 nM in data set [5]; 540 ± 30 nM in data set [6]. The Kd in data set [7] amounted to 490 ± 40 nM; in [8] it was 610 ± 50 nM; in [9], 660 ± 20 nM; in [10], 1610 ± 150 nM; in data set [11] it was 750 ± 100 nM; in data set [12] it was 2460 ± 30 nM. The Kd in [13] came out at 5750 ± 90 nM; in data set [14], 910 ± 70 nM; in data set [15], 2670 ± 130 nM; in [16] it was 3590 ± 300 nM.
